In the Immune Epitope Database (IEDB):

How the values were obtained:
[1] = biological target: HLA-A*26:01; assay: IEDB peptide-MHC binding, purified MHC/competitive/fluorescence; filed as Kd, often an IC50 or EC50 that approximates it; ≥ and ≤ were set here for values at or beyond the usual limits of such assays; conditions: source organism: Escherichia coli str. K-12 substr. MG1655
[2] = biological target: HLA-B*51:01; assay: IEDB peptide-MHC binding, purified MHC/competitive/radioactivity; filed as Kd, often an IC50 or EC50 that approximates it; ≥ and ≤ were set here for values at or beyond the usual limits of such assays
[3] = biological target: HLA-A*02:03; assay: as above
[4] = biological target: HLA-B*15:03; assay: as above
[5] = biological target: HLA-A*32:01; assay: as above
[6] = biological target: HLA-A*30:01; assay: as above; conditions: source organism: Vaccinia virus WR
[7] = biological target: HLA-B*08:01; assay: as above
[8] = biological target: HLA-B*15:01; assay: as above
[9] = biological target: HLA-A*02:01; assay: as above
[10] = biological target: HLA-B*44:03; assay: as above
[11] = biological target: HLA-B*18:01; assay: as above
[12] = biological target: HLA-B*44:02; assay: as above
[13] = biological target: HLA-B*40:02; assay: as above
[14] = biological target: HLA-B*45:01; assay: as above
[15] = biological target: HLA-B*40:01; assay: as above
[16] = biological target: HLA-B*07:02; assay: as above
[17] = biological target: HLA-B*53:01; assay: as above
[18] = biological target: HLA-A*02:01; assay: IEDB peptide-MHC binding, purified MHC/competitive/fluorescence; filed as Kd, often an IC50 or EC50 that approximates it; ≥ and ≤ were set here for values at or beyond the usual limits of such assays; conditions: source organism: Yersinia pestis Nepal516
[19] = biological target: HLA-B*15:01; assay: as above; conditions: source organism: Yersinia pestis Nepal516
[20] = biological target: HLA-B*39:01; assay: as above; conditions: source organism: Yersinia pestis Nepal516
[21] = biological target: HLA-B*51:01; assay: as above; conditions: source organism: Salmonella enterica subsp. enterica serovar Typhi
[22] = source organism: Dengue virus 2 Jamaica/1409/1983
[23] = source organism: Vaccinia virus WR
[24] = source organism: Vaccinia virus Copenhagen
[25] = source organism: SARS coronavirus Tor2
[26] = source organism: Dengue virus 3 Sri Lanka/1266/2000
[27] = source organism: Dengue virus 4 Philippines/H241/1956
[28] = source organism: Mammarenavirus machupoense
[29] = source organism: Mammarenavirus brazilense
[30] = source organism: Mammarenavirus lassaense
[31] = source organism: Lassa virus Josiah
[32] = source organism: Dengue virus 1 Brazil/97-11/1997

DVAKIEAPL
Kd [1]: 0.324 µM

FLTIPPTAGI
Kd [2, 22]: 0.343 µM
Kd [3, 22]: 0.00979 µM

LEFIHSQGF
Kd [4, 23]: 0.107 µM

MIKIALSVA
Kd [5, 23]: 4.69 µM
Kd [6]: 1.27 µM
Kd [7, 23]: 0.535 µM
Kd [4, 23]: 0.559 µM
Kd [8, 23]: 2.78 µM

HMAYSFQTF
Kd [5, 24]: 0.0163 µM
Kd [7, 24]: 0.733 µM
Kd [4, 24]: 0.000279 µM
Kd [8, 24]: 0.000246 µM

ALKRAQSEL
Kd ([9]; source organism: Homo sapiens): ≥ 41.8 µM
Kd ([3]; source organism: Homo sapiens): 0.0233 µM

YECLYRNRDV
Kd [10, 25]: 10.3 µM
Kd [11, 25]: ≥ 70.5 µM
Kd [12, 25]: 5.55 µM
Kd [13, 25]: 1.72 µM
Kd [14, 25]: 2.51 µM
Kd [15, 25]: 2.41 µM

CSAPPGQHM
Kd [4, 23]: 0.024 µM
Kd [8, 23]: 0.0527 µM

RSHIRKPPS
Kd [5, 23]: ≥ 77.8 µM
Kd [6]: 0.0821 µM
Kd [7, 23]: 3.33 µM
Kd [4, 23]: ≥ 23.1 µM
Kd [8, 23]: 11 µM

LPMTVAAMGV
Kd [2, 26]: 0.633 µM
Kd [16, 26]: 0.0507 µM

SPIEDIEREI
Kd [2, 27]: ≥ 22 µM
Kd [16, 27]: 5.45 µM
Kd [17, 27]: 0.411 µM

EEPVPLLPLS
Kd [10, 28]: 6.26 µM
Kd [11, 28]: ≥ 52.4 µM
Kd [12, 28]: 15.7 µM
Kd [13, 28]: 7.13 µM
Kd [14, 28]: 1.95 µM
Kd [15, 28]: ≥ 32 µM

GEHSLPRCW
Kd [10, 29]: 0.0802 µM
Kd [11, 29]: ≥ 77.5 µM
Kd [12, 29]: 0.0242 µM
Kd [13, 29]: 2.14 µM
Kd [14, 29]: 8.74 µM
Kd [15, 29]: ≥ 42.8 µM

YKFSCGLSL
Kd [4, 23]: 0.000132 µM

KEGFFTYLCG
Kd [10, 25]: 0.369 µM
Kd [11, 25]: ≥ 70.5 µM
Kd [12, 25]: 2.62 µM
Kd [13, 25]: 3.75 µM
Kd [14, 25]: 2.89 µM
Kd [15, 25]: 1.64 µM

AAFEFINSL
Kd [4, 23]: 0.00455 µM

SEETGTLIV
Kd [10, 25]: ≥ 27.6 µM
Kd [11, 25]: ≥ 50.5 µM
Kd [12, 25]: ≥ 50.1 µM
Kd [13, 25]: 7.26 µM
Kd [14, 25]: 0.121 µM
Kd [15, 25]: 1.93 µM

RAAGLQDCTML
Kd ([9]; source organism: Hepatitis C virus (isolate 1)): ≥ 50 µM

YEQYIKWPWY
Kd [10, 25]: 0.119 µM
Kd [11, 25]: 0.0793 µM
Kd [12, 25]: 0.0416 µM
Kd [13, 25]: 7.6 µM
Kd [14, 25]: 0.518 µM
Kd [15, 25]: 1.22 µM

SMYPSYIEF
Kd [4, 23]: 0.00011 µM

FQVVNPHLL
Kd [4, 23]: 0.0403 µM

AEFKSRFFVW
Kd [10, 30]: 0.0156 µM
Kd [11, 30]: 0.271 µM
Kd [12, 30]: 0.0136 µM
Kd [13, 30]: 0.0294 µM
Kd [14, 30]: 0.0514 µM
Kd [15, 30]: 2.33 µM

MTSYQYLII
Kd [9, 31]: 0.926 µM

QPMEHKYSW
Kd [16, 32]: 0.141 µM
Kd [17, 32]: 0.0578 µM

RLNPEVSYF
Kd [4, 23]: 0.00032 µM
Kd [8, 23]: 0.000304 µM

FSGSFASIF
Kd [4, 23]: 0.000318 µM

MIEEVMRSRW
Kd [17, 32]: 0.166 µM

LESAQPGLL
Kd [10, 29]: 16.8 µM
Kd [11, 29]: ≥ 10 µM
Kd [12, 29]: 2.95 µM
Kd [13, 29]: 0.431 µM
Kd [14, 29]: 13.5 µM
Kd [15, 29]: 0.147 µM

GLTYSQLMT
Kd [9, 31]: 12.5 µM

IPTAMAFHL
Kd [16, 22]: 0.0831 µM
Kd [17, 22]: 0.0494 µM

SSKVFLKAF
Kd [5, 23]: 7.02 µM
Kd [6]: 2.41 µM
Kd [7, 23]: 0.728 µM
Kd [4, 23]: 0.000369 µM
Kd [8, 23]: 0.0017 µM

AQRELFFTL
Kd [18]: 1.3 µM
Kd [19]: 0.113 µM
Kd [20]: 0.332 µM

VGVNHSNTF
Kd [4, 23]: 0.0806 µM

NPLWPFETV
Kd [21]: 0.229 µM
